Data taken from the DeepSol protein solubility set.

Assay: soluble on expression in E. coli; label from the status in PepcDB or PDB records

Sequence	soluble on expression in E. coli
MQRIVIVGGGVGGTMLANLLVVRLYPEILGGEVQVLLISDSPDHYYKPAFMYVAFEQFFLEDLKRPQRSLLRPEVMFQLDRVDRFDFPRQELQTRSGRRHGYDYLVIATGCVPAPERIEGLKEAGDHFYQYQPARRLAERLASLESGRVFITVSFPRTPNVPHQCGIAPVETTLMLDDYLRRRGVRERVEIVYTYPTTAQLLRNCLFLQRPTCEILPSLFEQRGIRFQRGFTLARVDPERRIAYSEEGDEQPFDLLMATPPIHAVDAVRECGLPQAAADEGWLPTNHETLQVYGVDRVYTLGDTVDLPVSKAGGACHNQAPVVASNIAAEIRLGKPCAIYDGRVQAVAQMGLNAGMPLWYDYRHDVKPTPPTKLGGLLRQGFNRGLYWAVARGMLLEHHHHHH	soluble
MEILIATGRLAENTVRKAAGEKADVLVADIDIAAFITPKKLTRAFEEAGLSKKYDLILLPGLVPGDFSKVSDELDCKIRLGPKHAYDLGFVLRFAEEVEFSVKVPACELLADVRKEEALELIREAEEEAVSPLSLRGVKLGGNSRMKVMGEIVGAAELNPADLEIKIEAFIARGADIIDLGATLNTLPGQVRSTVFLAKSLTDIPISIDTLDPELIKEGIEAGADLVLSLNSTNMETAGSVVAKAGVAAVIIPDEGNSLESLVNNIESARRLGIERIIADPILDPVGHNITESIVRYHEFHRRYPDIPLFFGAGNVTELMDVDTIGVNATLCGIGAETGASILFTPEYSDKAQGSIGELKKASEMMQLCRIRESSPKDLGIDLLFIKEKRKRPDSPLPKKVITARASKNWRQDPAGPIRVRIVPDKINGNGGLIVAEHEKAAIAGESAREVMDTLIELELVSSLDHAAYLGRELEKAELALRFNRSYAQDDIF	not soluble
MSLHPHLNANLEGGVLTLAINRPEAKNALYGELYLWIAKALDEADQNKDVRVVVLRGAEHDFTAGNDMKDFMGFVQNPNAGPAGQVPPFVLLKSAARLSKPLIIAVKGVAIGIGVTILLQADLVFADNTALFQIPFVSLGLSPEGGASQLLVKQAGYHKAAELLFTAKKFNAETALQAGLVNEIVEDAYATAQATAQHLTALPLASLKQTKALMKHDLDQIIECIDHEAEIFMQRVQSPEMLEAVQAFMQKRQPDFSQEGHHHHHH	soluble
MAEDKTKPSELDQGKYDADDNVKIICLGDSAVGKSKLMERFLMDGFQPQQLSTYALTLYKHTATVDGRTILVDFWDTAGQERFQSMHASYYHKAHACIMVFDVQRKVTYRNLSTWYTELREFRPEIPCIVVANKIDADINVTQKSFNFAKKFSLPLYFVSAADGTNVVKLFNDAIRLAVSYKQNSQDFMDEIFQELENFSLEQEEEDVPDQEQSSSIETPSEEAASPHS	soluble
MSLGEPAQPGAKKYVLFDVDGTLIDAVDNQRRVWRVWAERYGLDPGEVYQVALRTRPMETFAQVAPDRDPQECLAALHELEDEDVRSGVYAAFDGASELLDALPPESWALVTSNYEHRVRGRFARTGLPVPSIIVDAASVEEGKPSPVPYLLAAKRLGADPQDCLVIEDAPSGVRSALRAGMTVWGVNAPVAVDGVHRHFGSLREAIRDILAVTSGTRPHEPRGSAAVEGHHHHHH	soluble
DGYWYGDYYGVMSFGVNTDLVQEVPKSWEALLDSQYANAFALAGDPRASNQAILAVMSAGIADGTEPGEASGKKGLEFFGKLNKAGGFVPVIGKAGTIAQGQTPIVAAWDYNLLSWRDELKGNPPMEVVIPEGPSLAGVYVQAISAFAPHPNAAKLWMEYLYS	not soluble
MVVYGKQKYIMKRCFYMNKKLKTEAVDHLFQAILTLKSTEECYSFFEDVCTVNELLSFSQRYEVAKMLREKRTYLEIADKTGASTATISRVNRSLNYGNDGYDMVFKRLEDQAAEDNEA	not soluble
MGSDKIHHHHHHMSKHVPKATLLTPSDVAFITDANRPVLTHTRNMAAEAGIEPHSHPRGQLLWAAKGLLRVRSENAVWVVPSTHAVWIPCNLPHQVNSETHAHTRNIYIDPSYDVRSLDTQVVMVTMTALMRELVLKLCESSHLMNSGQLHRLGLVAIDELETLDSLDAHLPAGSDPRLSRLIQKLIRHPTVNYTLTELAEMGGASVRTIERLFKAETGLTYRQWRQRFRLLNSLESLSQGESTTRVAHSLGYLSVSSFSAAFKMQFGCTPQDYPQHKPMKSKVNWFPDPVTGNN	not soluble
MSLGINGFTAHAQKLSLIYNTLDSRDMPTRGLYAKAAIEGSAEFLGSDASYRHYEAELKGYFPLKEARYITVARVAYNQTLGSDVPFLERSILGGESTLRGYGRNRFIDSSYFLCNLEERIRLFRWSVFDVNTDWEVAPFIDLGAVMESLDKTRSKNFEFNPGIGFRAVVRPNIVGRVDIGVGNDGPAVFVGLGYPFEGHHHHHH	not soluble
MTDFQKQFFARLNIEEKQKVSFEDLSNIMYAMAQTVPFENLNVLEKNFKEISQENLKEKILVNNRGGLCYELNPTMYYFLKDAGFDVYLVSGTVYNAANSIWAVDSGHIATILKHHNELYLIEVGFGSYLPLAPVPFSGEVVQSVTGDYRIRKEMTEKGNYMLEMRKNDEFLDQSSTDDWTLGYAFYIEEVDEKKQMQHKKLLLNTMAHHLTKYLLL	not soluble
MSDVSRILKEARSQSRLTTLDYAEQIFDDFMELHGDRHFADDGAIVGGIGLLDGQAVTVIGVQKGKNLQDNLNRNFGQPNPEGYRKALRLMKQAEKFKRPVVTFINTAGAYPGIGAEERGQGEAIARNLLEMSDLKVPIIAIIIGEGGSGGALALAVADKVWMLEHTMYAVLSPEGFASILWKDGSRSIEAAELMKITAGELLKMEVVDKVIPEHGYFSSEIIQMLKTNLIEELKNLDQYPLNDLLEKRYQRFRKY	not soluble
MEDQLTIFIISDSLGETAKAIAKACLSQFPGHDDWHFQRFSYINSQERLEQVFEEASQKTVFMMFSLVDVALASYAQKRCESEHYAYVDLLTNVIQGISRISGIDPLGEPGILRRLDNDYFKRVESIEFAVKYDDGRDPRGILQADLVIIGISRTSKTPLSMFLADKNIKVINIPLVPEVPVPKELRMIDSRRIIGLTNSVDHLNQVRKVRLKSLGLSSTANYASLERILEETRYAEEVMKNLGCPIINVSDKAIEETATIILEILKTNGQVAKNLLEHHHHHH	not soluble
MSQVFKDFDLSSVWKTNSWADENYKEAPFTPEILAAVESELGYKLPQSFIELMAVQNGGIFVKNCFPTTQRNSWAENHVQICEVSGIGFEKEGSLCGAMGQKLWLEEWEYPPIGVYFANDPSGGHAMFALDYRACGKDGEPKVVFVEQESDFEIVELAPDFETFIRSLRHEDEFIDEEI	not soluble
MPLSDADYNDPDNEEVAFLSRGLLEACIEFIRETPAGDALRIVAYEFTFKRILLELKAALERGVDVRIVYHATTANEKAIADAKLPENSKGVQILFKRTRPQTPHNKFIVRLKKGKTPVSVWTGSTNFTPSGFLGQTNVGHKVTDGDIAKIYLQLWEGLKADPDDFDATQAAMALTPLEHHHHHH	soluble
GHMPAYVFSKESFLKFLEGHLEDDVVVVVSSDVTDFCKKLSESMVGEKEYCFAEFAFPADIFDADEDEIDEMMKYAIVFVEKEKLSEAGRNAIR	soluble
MNIQSIETYQVRLPLKTPFVTSYGRLEEKAFDLFVITDEQGNQGFGELVAFEQPDYVQETLVTERFIIQQHLIPLLLTEAIEQPQEVSTIFEEVKGHWMGKAALETAIWDLYAKRQQKSLTEFFGPTRRKIPVGISLGIQEDLPQLLKQVQLAVEKGYQRVKLKIRPGYDVEPVALIRQHFPNLPLMVDANSAYTLADLPQLQRLDHYQLAMIEQPFAADDFLDHAQLQRELKTRICLDENIRSLKDCQVALALGSCRSINLKIPRVGGIHEALKIAAFCQENDLLVWLGGMFESGVGRALNLQFASQPTFSFPGDISATERYFYEDIITEPFILEQGTMTVPQGLGIGVTLSQTNLLKYSQYQKIM	not soluble
METRREERIGQLLQELKRSDKLHLKDAAALLGVSEMTIRRDLNNHSAPVVLLGGYIVLEPRSASHYLLSDQKSRLVEEKRRAAKLAATLVEPDQTLFFDCGTTTPWIIEAIDNEIPFTAVCYSLNTFLALKEKPHCRAFLCGGEFHASNAIFKPIDFQQTLNNFCPDIAFYSAAGVHVSKGATCFNLEELPVKHWAMSMAQKHVLVVDHSKFGKVRPARMGDLKRFDIVVSDCCPEDEYVKYAQTQRIKLMYLEHHHHHH	soluble
MSLIKVLIVDDHALVRMGIRRLLEDMSDVDVVADAESGEQALAYVKTHSPDVVLLDMKMPGIDGWEVTRRLKKTNPNIKVIAVTAICSDPLPTRVLQLGAMGYLTKESGAEEMAAAIRKVAKGEKYLSAEIAQKMAINSLQESQDSPFDLLSEREMQVMLMITSGMNVQDIADRLFLSSKTINGYRYRMFEKLGIKNDVELTYLAMKHRIIEHPNDLSQDDEGHHHHHH	soluble
GHMRRELAIEFSRVTESAALAGYKWLGRGDKNTADGAAVNAMRIMLNQVNIDGTIVIGEGEIDEAPMLYIGEKVGTGRGDAVDIAVDPIEGTRMTAMGQANALAVLAVGDKGCFLNAPDMYMEKLIVGPGAKGTIDLNLPLADNLRNVAAALGKPLSELTVTILAKPRHDAVIAEMQQLGVRVFAIPDGDVAASILTCMPDSEVDVLYGIGGAPEGVVSAAVIRALDGDMNGRLLARHDVKGDNEENRRIGEQELARCKAMGIEAGKVLRLGDMARSDNVIFSATGITKGDLLEGISRKGNIATTETLLIRGKSRTIRRIQSIHYLDRKDPEMQVHIL	soluble
MSLKDRFDRFIDYFTEDEDSSLPYEKRDEPVFTSVNSSQEPALPMNQPSQSAGTKENNITRLHARQQELANQSQRATDKVIIDVRYPRKYEDATEIVDLLAGNESILIDFQYMTEVQARRCLDYLDGACHVLAGNLKKVASTMYLLTPVNVIVNVEDIRLPDEDQQGEFGFDMKRNRVRLEHHHHHH	not soluble
MACGLALKRPLQHEYESFLTDETYNGEAKRARTQCPPFRAQMGTIAATLPSTSTFAQKFKEQEESVFQAATLMTRLSRNQLKTYLSSEVKNLRKRKAIPRSNDFDDDGDQRGDGCSSNYSKAYRAPSSPKSGSDSEGEAPSTSVTDRSSAKREFTMANVQMICERLLKQQEIRLRNEFEMVLTKKLDEQHQQYVQFAAEQLNSKCVSTGDDYSYSYLS	not soluble
MGSDKIHHHHHHMAVQAKQCKAVLLCGYYGEHNLGDDALLQVLLEELPSSLQPWITANDSNVIKGLAPKAQVINRRSLLESIRALFQVQGLILGGGSLLQDSTSFKSLIYYLILIVIAQQRGVPVLLWGQGLGPFRYRLSRWMVRRVLRRVQAISWRDPDSFQLAEQWCLPSPMLMAPDPVWQLPSRSWEGGQAVVLCWRSTSMLDRFGWQHLLQALEMILTDIDAPVHWLAFHQRQDEELFRKLDRQGLISSSLRSRSHSFAFDSLTEVMNQFTMARLVLPMRLHALILAQLAGSPTVALSYDPKVSSAALMANVPFTDLQSLPDIRLLAGLWGQVLDVPPDLGKIEAIRKHASQHSKIIDKVFN	not soluble
MAAVVKSVALAGRPTTPDRVHEVLGRSMLVDGLDIVLDLTRSGGSYLVDAITGRRYLDMFTFVASSALGMNPPALVDDREFHAELMQAALNKPSNSDVYSVAMARFVETFARVLGDPALPHLFFVEGGALAVENALKAAFDWKSRHNQAHGIDPALGTQVLHLRGAFHGRSGYTLSLTNTKPTITARFPKFDWPRIDAPYMRPGLDEPAMAALEAEALRQARAAFETRPHDIACFVAEPIQGEGGDRHFRPEFFAAMRELCDEFDALLIFDEVQTGCGLTGTAWAYQQLDVAPDIVAFGKKTQVCGVMAGRRVDEVADNVFAVPSRLASTWGGNLTDMVRARRILEVIEAEGLFERAVQHGKYLRARLDELAADFPAVVLDPRGRGLMCAFSLPTTADRDELIRQLWQRAVIVLPAGADTVRFRPPLTVSTAEIDAAIAAVRSALPVVT	soluble
